In patent US20050289668A1, “Plants with increased levels of one or more amino acids” (priority 2003, published 2005):

Legend:
[1] = tested on: soybean seeds; experiment: Free amino acid concentration in seeds of soybean transformed with threonine deaminase constructs (TCA extraction, OPA HPLC, fluorescence); assay type: in vivo; details: transformed soybean plants
Description: The concentration of free isoleucine in seeds was determined by crushing approximately 50 mg of seed, placing the crushed material in a centrifuge vial, and then weighing. One mL of 5% trichloroacetic acid was added to each sample vial. The samples were mixed, using a vortex mixer, at room temperature for 15 minutes. The samples were then spun in a microcentrifuge for 15 minutes at 14,000 rpm. Some of the supernatant was then removed, placed in a HPLC vial and sealed. Samples were kept at 4° C. prior to analysis. A single seed analysis was performed on all R1 soybean seed, with 5 seeds per event, and one injection per seed. For subsequent generations representing the R2 and R3 seeds, a bulk assay having 10 seeds for each event, and one injection per event was used. The samples were analyzed using the Agilent Technologies 1100 series HPLC system. A 0.5 μL aliquot of the sample was derivatized with 2.5 μL of OPA (o-phthalaldehyde and 3-mercaptopropionic acid in borate buffer, Hewlett-Packard PN 5061-3335) reagent in 10 μl of 0.4 N borate buffer pH 10.2 (Hewlett-Packard, PN 5061-3339). The derivative was injected onto an Agilent Technologies Eclipse® XDB-C18 3.5 μm, 4.6×75 mm at 2 mL/min flow rate. […] Isoleucine concentrations were measured using fluorescence detection (excitation at 340 nm, emission at 450 nm) and values were calculated from a standard curve ranging from 10 to 800 μg/mL. […]

[2] = target: T1, Arabidopsis threonine deaminase (Arabidopsis thaliana, UniProt Q9ZSS6); experiment: Kinetics data for Arabidopsis threonine deaminases (comparison in Table 4, FIG. 6); assay type: biochemical; details: initial velocity vs threonine concentration
T1 sequence (Q9ZSS6 92-592): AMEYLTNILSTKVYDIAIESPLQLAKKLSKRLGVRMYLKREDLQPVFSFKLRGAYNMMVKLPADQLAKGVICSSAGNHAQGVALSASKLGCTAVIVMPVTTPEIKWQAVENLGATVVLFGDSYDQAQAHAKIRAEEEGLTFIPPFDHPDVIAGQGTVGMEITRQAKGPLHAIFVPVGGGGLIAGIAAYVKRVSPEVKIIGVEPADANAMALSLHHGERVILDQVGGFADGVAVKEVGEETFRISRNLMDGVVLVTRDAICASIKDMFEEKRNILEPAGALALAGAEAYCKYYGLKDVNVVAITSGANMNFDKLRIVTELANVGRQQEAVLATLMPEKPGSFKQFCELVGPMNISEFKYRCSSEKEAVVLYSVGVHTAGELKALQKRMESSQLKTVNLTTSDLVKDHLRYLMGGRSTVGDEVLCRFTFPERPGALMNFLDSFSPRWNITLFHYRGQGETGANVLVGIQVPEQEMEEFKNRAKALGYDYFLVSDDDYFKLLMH

[3] = tested on: E. coli threonine deaminase; experiment: Steady state kinetic analysis of E. coli ilvA threonine deaminase variants, continuous assay of α-ketobutyrate at 230 nm, with and without L-isoleucine; assay type: biochemical; details: for Km: E. coli ilvA TD expressed in E. coli, crude extract, pH 7.5, read-out: Km^Thr; for IC50: inhibition of TD activity by L-isoleucine
Description: Before conducting further transformation experiments using the isolated ilvA alleles in transgenic plants, each allele was over-expressed in E. coli to determine its kinetic parameters. Kinetics data on threonine deaminases containing various mutations, and a comparison to data available for threonine deaminases from Arabidopsis, are provided in Table 4. The E. coli ilvA481 variants were subcloned into pSE380 (Invitrogen, Carlsbad, Calif.) and expression was induced with 0.2 mM IPTG at 37° C. for 3 hours. Expression of the E. coli alleles was high and fairly consistent as visualized by SDS-PAGE.
The effects of amino acid substitutions at Leu481 in ilvA were assessed by steady state kinetic analysis in the presence and absence of L-isoleucine. Threonine deaminase polypeptides for use in in vitro kinetics studies were extracted from E. coli cells in assay buffer containing 50 mM potassium phosphate (pH7.5), 1 mM dithiothreitol (DTT), and 0.5 mM ethylenediamine-tetraacetate. A continuous assay method was employed to monitor the formation of α-ketobutyrate directly at 230 nm (ε230 (pH7.5)=540 M^−1cm^−1 whereas threonine absorption was negligible (˜1%)). The assay was initiated by adding 20 μl of crude extract diluted 1:20 v/v to the assay vessel containing L-threonine (between 2.5 mM and 50 mM) in a final volume of 1 mL. For L-isoleucine inhibition, L-isoleucine was added between 0 mM and 20 mM. The kinetic parameters were determined by fitting the data points to the equations using GraFit 4.0 software (Erithacus Software, Surrey, UK). For comparison, the kcat values of L481 alleles were normalized to the kcat value for the wild type IlvA enzyme. Enzymes represented in FIG. 7 are: wild type E. coli threonine deaminase (circles), L481Y TD enzyme (diamonds), L481F TD enzyme (triangles), and the L481T TD enzyme (squares). Table 4 also summarizes the kinetic parameters of the variant threonine deaminase enzymes produced by the various E. coli ilvA alleles.

With “ilvA219: mutagenized E. coli threonine deaminase gene containing the L447F mutation” the “free isoleucine concentration in the seed” value [1] was over 600 µg/g.

In the case of “ilvA466: mutagenized E. coli threonine deaminase gene containing the L481F mutation”, the “free isoleucine concentration in the seed” value [1] is reported as over 1300 µg/g.

B1: Wild type Arabidopsis: wild type Arabidopsis threonine deaminase polypeptide (protein, UniProt Q9ZSS6 92-592, looked up)
Threonine dehydratase …: AMEYLTNILSTKVYDIAIESPLQLAKKLSKRLGVRMYLKREDLQPVFSFKLRGAYNMMVKLPADQLAKGVICSSAGNHAQGVALSASKLGCTAVIVMPVTTPEIKWQAVENLGATVVLFGDSYDQAQAHAKIRAEEEGLTFIPPFDHPDVIAGQGTVGMEITRQAKGPLHAIFVPVGGGGLIAGIAAYVKRVSPEVKIIGVEPADANAMALSLHHGERVILDQVGGFADGVAVKEVGEETFRISRNLMDGVVLVTRDAICASIKDMFEEKRNILEPAGALALAGAEAYCKYYGLKDVNVVAITSGANMNFDKLRIVTELANVGRQQEAVLATLMPEKPGSFKQFCELVGPMNISEFKYRCSSEKEAVVLYSVGVHTAGELKALQKRMESSQLKTVNLTTSDLVKDHLRYLMGGRSTVGDEVLCRFTFPERPGALMNFLDSFSPRWNITLFHYRGQGETGANVLVGIQVPEQEMEEFKNRAKALGYDYFLVSDDDYFKLLMH
With B1 the “cooperativity in substrate binding” value [2] was “independent activity”.

B2: L481K: E. coli threonine deaminase, Leu at position 481 replaced with Lys (protein, listed as Escherichia coli)
chain: MADSQPLSGAPEGAEYLRAVLRAPVYEAAQVTPLQKMEKLSSRLDNVILVKREDRQPVHSFKLRGAYAMMAGLTEEQKAHGVITASAGNHAQGVAFSSARLGVKALIVMPTATADIKVDRLRGFGGEVLLHGANFDEAKRKAIELSQQQGFTWVPPFDHPMVIAGQGTLALELLQQDAHLDRVFVPVGGGGLAACVAVLIKQLMPQIKVIAVEAEDSACLKAALDAGHPVDLPRVGLFAEGVAVKRIGDETFRLCQEYLDDIITVDSDAICAAMKDLFEDVRAVAEPSGALALAGMKKYIALHNIRGERLAHILSGANVNFHGLRYVSERCELVEQREALLAVTIPEEKGSFLKFCQLLGGRSVTEFNYRFADAKNACIFVGVRLSRGLEERKEILQMLNDGGYSVVDLSDDEMAKLHVRYMVGGRPSHPLQERLYSFEFPESPGALLRFLNTLGTYWNISLFHYRSHGTDYGRVLAAFEKGDHEPDFETRLNELGYDCHDETNNPAFRFFLAG
In the case of B2, the enzyme activity ([3]; expressed in E. coli) is reported as “poor enzyme activity”.

B3: L481M: E. coli threonine deaminase, Leu at position 481 replaced with Met (protein, listed as Escherichia coli)
chain: MADSQPLSGAPEGAEYLRAVLRAPVYEAAQVTPLQKMEKLSSRLDNVILVKREDRQPVHSFKLRGAYAMMAGLTEEQKAHGVITASAGNHAQGVAFSSARLGVKALIVMPTATADIKVDRLRGFGGEVLLHGANFDEAKRKAIELSQQQGFTWVPPFDHPMVIAGQGTLALELLQQDAHLDRVFVPVGGGGLAACVAVLIKQLMPQIKVIAVEAEDSACLKAALDAGHPVDLPRVGLFAEGVAVKRIGDETFRLCQEYLDDIITVDSDAICAAMKDLFEDVRAVAEPSGALALAGMKKYIALHNIRGERLAHILSGANVNFHGLRYVSERCELVEQREALLAVTIPEEKGSFLKFCQLLGGRSVTEFNYRFADAKNACIFVGVRLSRGLEERKEILQMLNDGGYSVVDLSDDEMAKLHVRYMVGGRPSHPLQERLYSFEFPESPGALLRFLNTLGTYWNISLFHYRSHGTDYGRVLAAFEMGDHEPDFETRLNELGYDCHDETNNPAFRFFLAG
Molecule B3 has a Km [3] of 6.4 mM and an IC50 [3] of 100 µM.

B4: L481V: E. coli threonine deaminase, Leu at position 481 replaced with Val (protein, listed as Escherichia coli)
chain: MADSQPLSGAPEGAEYLRAVLRAPVYEAAQVTPLQKMEKLSSRLDNVILVKREDRQPVHSFKLRGAYAMMAGLTEEQKAHGVITASAGNHAQGVAFSSARLGVKALIVMPTATADIKVDRLRGFGGEVLLHGANFDEAKRKAIELSQQQGFTWVPPFDHPMVIAGQGTLALELLQQDAHLDRVFVPVGGGGLAACVAVLIKQLMPQIKVIAVEAEDSACLKAALDAGHPVDLPRVGLFAEGVAVKRIGDETFRLCQEYLDDIITVDSDAICAAMKDLFEDVRAVAEPSGALALAGMKKYIALHNIRGERLAHILSGANVNFHGLRYVSERCELVEQREALLAVTIPEEKGSFLKFCQLLGGRSVTEFNYRFADAKNACIFVGVRLSRGLEERKEILQMLNDGGYSVVDLSDDEMAKLHVRYMVGGRPSHPLQERLYSFEFPESPGALLRFLNTLGTYWNISLFHYRSHGTDYGRVLAAFEVGDHEPDFETRLNELGYDCHDETNNPAFRFFLAG
B4 gave a Km [3] of 7.1 mM and an IC50 [3] of 97 µM.

B5: L447F (ilvA219): E. coli threonine deaminase, Leu at position 447 replaced with Phe (protein, listed as Escherichia coli)
chain: MADSQPLSGAPEGAEYLRAVLRAPVYEAAQVTPLQKMEKLSSRLDNVILVKREDRQPVHSFKLRGAYAMMAGLTEEQKAHGVITASAGNHAQGVAFSSARLGVKALIVMPTATADIKVDRLRGFGGEVLLHGANFDEAKRKAIELSQQQGFTWVPPFDHPMVIAGQGTLALELLQQDAHLDRVFVPVGGGGLAACVAVLIKQLMPQIKVIAVEAEDSACLKAALDAGHPVDLPRVGLFAEGVAVKRIGDETFRLCQEYLDDIITVDSDAICAAMKDLFEDVRAVAEPSGALALAGMKKYIALHNIRGERLAHILSGANVNFHGLRYVSERCELVEQREALLAVTIPEEKGSFLKFCQLLGGRSVTEFNYRFADAKNACIFVGVRLSRGLEERKEILQMLNDGGYSVVDLSDDEMAKLHVRYMVGGRPSHPLQERLYSFEFPESPGAFLRFLNTLGTYWNISLFHYRSHGTDYGRVLAAFELGDHEPDFETRLNELGYDCHDETNNPAFRFFLAG
In the case of B5, the “cooperativity in substrate binding” value ([3]; initial velocity vs threonine concentration) is reported as “negative cooperativity”.
